Data published in patent US7968692B2, “Elongase genes and uses thereof” (Abbott Laboratories, priority 1998, dated 2011).

Columns and labels:
Format in all cases: cell-based, Saccharomyces cerevisiae
S. cerevisiae 334 [1] = experiment: GLA elongase (GLELO) activity and substrate specificity in yeast
Method: To further confirm the activity of the GLA elongase encoded by the pRPB2 recombinant plasmid, elongase activity screening was repeated on the yeast clone SC334 containing pRPB2 plasmid. This experiment was also conducted to assure consistent lipid extraction and to detect the activity of GLA elongase by averaging four independent experiments. The S. cerevisiae 334 glycerol stock containing pRPB2 was plated onto minimal media agar plates lacking uracil. Individual colonies were randomly picked and grown in minimal medium lacking uracil, as described in Example VIII. The four independent cultures were combined, and a 5 ml aliquot was used as an inoculum for four separate 50 ml cultures. The cultures were then grown in the presence of GLA and were subjected to fatty acid analysis along with a negative control of S. cerevisiae 334 containing pYES2, as described in Example VIII. The GLA elongase activity of each of the four independent samples of 334(pRPB2) appeared to be consistent with an average conversion of 62% GLA to DGLA.
To analyze the substrate specificity of the GLA elongase, the culture of 334(pRPB2) was tested with different fatty acid substrates besides GLA (e.g., SA(18:0), OA(18:1), LA(18:2n-6), AA(20:4n-6), ADA(22:4n-6), ALA(18:3n-3), STA(18:4n-3), and EPA(20:5n-3)). […] GLA elongase was able to convert 73% of STA to 20:4n-3 (FIG. 25).

S. cerevisiae 334 [2] = experiment: Co-expression of GLELO and M. alpina Δ5-desaturase in yeast
Method: Once DGLA (20:3n-6) is produced by the GLA elongase, the Δ5-desaturase can convert it to AA (20:4n-6) in a desired co-expression system. […] Therefore, the GLA elongase has the ability to work with other enzymes in the n-6 PUFA synthetic pathway to produce desirable fatty acids.
To determine whether the above conversion is also true in n-3 pathways, the similar co-expression experiments were carried out in the presence of 25 μM STA. Again, if both enzymes are expressed, the STA substrate will be converted to 20:4n-3 which will then be converted to EPA (20:5n-3) by the Δ5-desaturase.

S. cerevisiae 334 [3] = experiment: Pavlova sp. elongase PELO1 activity in yeast; conditions: for elongation of GLA to DGLA: 25 μM of GLA
Method: The construct pRPL-6-1 was transformed into S. cerevisiae 334 (Hoveland et al., supra) and screened for elongase activity. S. cerevisiae 334 containing the unaltered pYX242 vector was used as a negative control. The cultures were grown for 44 hours at 24°C, in selective media (Ausubel et al., supra), in the presence of 25 μM of GLA or EPA. In this study, DGLA or ω3-docosapentaenoic acid (DPA, 22:5n-3), respectively, was the predicted product of the elongase activity.
The constructs pRPL-6-B2 and pRPL-6-A3 were transformed into S. cerevisiae 334 (Hoveland et al., supra) and screened for elongase activity. S. cerevisiae 334 containing the unaltered pYX242 vector was used as a negative control. The cultures were grown for 44 hours at 24° C., in selective media (Ausubel et al., supra), in the presence of 25 μM of GLA or EPA. In this study, DGLA or ω3-docosapentaenoic acid (DPA, 22:5n-3), respectively, was the predicted product of the elongase activity.
To further confirm the substrate specificity of the algal elongation enzyme, described above and referred to herein as PELO1p, the recombinant yeast strain 334(pRPL-6-B2) was grown in minimal media containing n-6 fatty acids LA, GLA, DGLA, AA, or n-3 fatty acids ALA, STA, ETA, EPA, or 20:0, or 20:1. […] The levels of these fatty acids were 1.40% ADA and 2.54% […], respectively, of the total fatty acids in the strains containing the PELO1 sequence. […] No elongation of the saturated fatty acid 20:0, or monounsaturated fatty acid 20:1 was seen. Also, no elongation of the C18 substrates LA, GLA, ALA, or STA was seen.

S. cerevisiae 334 [4] = experiment: Comparison of MAELO and S. cerevisiae ELO2 PUFA elongase activity in baker's yeast; conditions: 25 μM GLA; FIG. 12
Description: The ELO2 gene encoding for the yeast elongase was cloned from an S. cerevisiae genomic library (Origene, Rockville, Md.) using the primers RO514 (SEQ ID NO: 94) (5′-GGCTATGGATCCATGAATTCACTCGTTACTCAATATG-3′) and RO515 (SEQ ID NO: 95)(5′-CCTGCCAAGCTTTTACCTTTTTCTTCTGTGTTGAG-3′) incorporating the restriction sites (underlined) BamHI and HindIII (respectively). The ELO2 gene was cloned into the vector pYX242 at the BamHI and HindIII sites, designated pRELO, transformed into the S. cerevisiae host 334 (Hoveland et al., supra) and screened for PUFA elongase activity. The vector plasmid was used as a negative control and 334(pRAE-5) was grown to compare the PUFA elongase activity. The cultures were grown as previously described with no galactose in the media and 25 μM GLA added as a substrate. […] Additionally, when DGLA produced is expressed as a percent of the total lipids (shown in parenthesis, FIG. 12), the clones 334(pRELO-1) and 334 (pRELO-2) produced 0.153% and 0.2% DGLA respectively, while 334(pYX242) produced 0.185% DGLA. […] The M. alpina PUFA elongase activity is specific for this conversion as evidenced by the higher amount of DGLA produced compared to the control, 334(pYX242).

[5] = 25 μM of EPA, 44 hours at 24° C.

B1: GLELO: M. alpina GLA elongase, 318 amino acids, encoded by GLELO cDNA (SEQ ID NO:2) in plasmid pRPB2 (protein, listed as Mortierella alpina)
chain: MESIAPFLPSKMPQDLFMDLATAIGVRAAPYVDPLEAALVAQAEKYIPTIVHHTRGFLVAVESPLARELPLMNPFHVLLIVLAYLVTVFVGMQIMKNFERFEVKTFSLLHNFCLVSISAYMCGGILYEAYQANYGLFENAADHTFKGLPMAKMIWLFYFSKIMEFVDTMIMVLKKNNRQISFLHVYHHSSIFTIWWLVTFVAPNGEAYFSAALNSFIHVIMYGYYFLSALGFKQVSFIKFYITRSQMTQFCMMSVQSSWDMYAMKVLGRPGYPFFITALLWFYMWTMLGLFYNFYRKNAKLAKQAKADAAKEKARKLQ
average conversion of GLA to DGLA (S. cerevisiae 334 [1]; 25 μM GLA, four independent cultures, FIG. 24): 62% | utilization of other substrates SA, OA, LA, AA, ADA, ALA, STA, EPA (S. cerevisiae 334 [1]; identical assay conditions): the only other substrate utilized by the elongase enzyme was STA | conversion of STA to 20:4n-3 (S. cerevisiae 334 [1]; substrate STA, FIG. 25): 73% | average conversion of GLA to AA (S. cerevisiae 334 [2]; 25 μM GLA, co-expressed with Δ5-desaturase (pRPE31), FIG. 26A): 27% | production of EPA (S. cerevisiae 334 [2]; 25 μM STA, co-expressed with Δ5-desaturase, FIG. 26B): approx. 40%

B2: pRPL-6-1: PELO1 clone with a single mutation relative to pRPL-6-B2 that dramatically reduced conversion (protein)
chain: MMLAAGYLLVLSAARQSFQQDIDNPNGAYSTSWTGLPIVMSVVYLSGVFGLTKYFENRKPMTGLKDYMFTYNLYQVIINVWCVVAFLLEVRRAGMSLIGNKVDLGPNSFRLGFVTWVHYNNKYVELLDTLWMVLRKKTQQVSFLHVYHHVLLMWAWFVVVKLGNGGDAYFAGLMNSIIHVMMYSYYTMALLGWSCPWKRYLTQAQLVQFCICLAHSTWAAVTGAYPWRICLVEVWVMVSMLVLFTRFYRQAYAKEAKAKEAKKLAQEASQAKAVKAE
modifications: Pavlova sp. (specific species unknown)
DPA, of total fatty acids (S. cerevisiae 334 [3]; [5]): 0.34% | EPA (substrate), of total fatty acids (S. cerevisiae 334 [3]; [5]): 32.28% | elongation of GLA to DGLA (S. cerevisiae 334 [3]; 44 hours at 24° C.): no conversion of GLA to DGLA was seen

B3: PELO1: Pavlova sp. 459 elongase (SEQ ID NO:119) from plasmid pRPL-6-B2 (protein)
chain: MMLAAGYLLVLSAARQSFQQDIDNPNGAYSTSWTGLPIVMSVVYLSGVFGLTKYFENRKPMTGLKDYMFTYNLYQVIINVWCVVAFLLEVRRAGMSLIGNKVDLGPNSFRLGFVTWVHYNNKYVELLDTLWMVLRKKTQQVSFLHVYHHVLLMWAWFVVVKLGNGGDAYFGGLMNSIIHVMMYSYYTMALLGWSCPWKRYLTQAQLVQFCICLAHSTWAAVTGAYPWRICLVEVWVMVSMLVLFTRFYRQAYAKEAKAKEAKKLAQEASQAKAVKAE
modifications: Pavlova sp. (specific species unknown)
conversion of the substrate EPA to DPA (S. cerevisiae 334 [3]; 25 μM of EPA, 44 hours at 24° C., FIG. 99): significant levels of conversion | elongation of GLA to DGLA (S. cerevisiae 334 [3]; 44 hours at 24° C.): GLA was not elongated to DGLA | elongation of saturated fatty acid 20:0 or monounsaturated fatty acid 20:1 (S. cerevisiae 334 [3]; FIG. 101): No elongation | elongation of the C18 substrates LA, GLA, ALA, or STA (S. cerevisiae 334 [3]; FIG. 101): no elongation | conversion of AA to ADA (S. cerevisiae 334 [3]; substrate AA, FIG. 101): 14.0% | level of ADA, of the total fatty acids (S. cerevisiae 334 [3]; substrate AA, FIG. 101): 1.40% | conversion of EPA to product elongated by two carbon atoms (S. cerevisiae 334 [3]; substrate EPA, FIG. 101): 14.1% | level of EPA (so in the source), of the total fatty acids (S. cerevisiae 334 [3]; substrate EPA, FIG. 101): 2.54%

B4: 334(pRELO-1): individual clone of S. cerevisiae 334 overexpressing S. cerevisiae elongase ELO2 in pYX242 (pRELO) (protein, UniProt P25358 1-347, looked up)
Fatty acid elongase 2: MNSLVTQYAAPLFERYPQLHDYLPTLERPFFNISLWEHFDDVVTRVTNGRFVPSEFQFIAGELPLSTLPPVLYAITAYYVIIFGGRFLLSKSKPFKLNGLFQLHNLVLTSLSLTLLLLMVEQLVPIIVQHGLYFAICNIGAWTQPLVTLYYMNYIVKFIEFIDTFFLVLKHKKLTFLHTYHHGATALLCYTQLMGTTSISWVPISLNLGVHVVMYWYYFLAARGIRVWWKEWVTRFQIIQFVLDIGFIYFAVYQKAVHLYFPILPHCGDCVGSTTATFAGCAIISSYLVLFISFYINVYKRKGTKTSRVVKRAHGGVAAKVNEYVNVDLKNVPTPSPSPKPQHRRKR
DGLA produced as a percent of the total lipids (S. cerevisiae 334 [4]): 0.153% | amount of 20:3n-6 or DGLA produced relative to negative control pYX242 (S. cerevisiae 334 [4]): twice

B5: 334(pRELO-2): individual clone of S. cerevisiae 334 overexpressing S. cerevisiae elongase ELO2 in pYX242 (pRELO) (protein, UniProt P25358 1-347, looked up)
Fatty acid elongase 2: MNSLVTQYAAPLFERYPQLHDYLPTLERPFFNISLWEHFDDVVTRVTNGRFVPSEFQFIAGELPLSTLPPVLYAITAYYVIIFGGRFLLSKSKPFKLNGLFQLHNLVLTSLSLTLLLLMVEQLVPIIVQHGLYFAICNIGAWTQPLVTLYYMNYIVKFIEFIDTFFLVLKHKKLTFLHTYHHGATALLCYTQLMGTTSISWVPISLNLGVHVVMYWYYFLAARGIRVWWKEWVTRFQIIQFVLDIGFIYFAVYQKAVHLYFPILPHCGDCVGSTTATFAGCAIISSYLVLFISFYINVYKRKGTKTSRVVKRAHGGVAAKVNEYVNVDLKNVPTPSPSPKPQHRRKR
DGLA produced as a percent of the total lipids (S. cerevisiae 334 [4]): 0.2% | amount of 20:3n-6 or DGLA produced relative to negative control pYX242 (S. cerevisiae 334 [4]): twice
